Experimental data from US20240200044.

What was measured:
[1] = tested on: ATM-L TALEN L1-2 (A252T) A252T (full TALE construct numbering) (synthetic construct); assay: cleavage_in_vitro; conditions: canonical 6.3% in same experiment
[2] = tested on: ATM-L TALEN L3-2 (in cells) A252T,L338S,Q505K,Q745P (full TALE construct numbering) (synthetic construct); assay: cell_activity; conditions: U2OS
[3] = tested on: ATM-L TALEN L3-1 (in cells) A252T,Q505K,Q745P (full TALE construct numbering) (synthetic construct); assay: cell_activity; conditions: U2OS
[4] = tested on: canonical ATM-R TALEN (synthetic construct); assay: cleavage_in_vitro; conditions: 12 nM, 90 min, paired with canonical ATM-L

Sequence | activity [3] [% indels] | activity [2] [% indels] | also measured
GGAAATGGGATACTGAGT (double strand) [OffA17 left half-site] | < 0.001 | – | activity [1]: 0.3 % cleavage; activity ([2]; HEK293 0.025%): < 0.001 % indels
TGAATTGGGATGCTGTTT (double strand) [ATM left half-site on-target] | 7.04 | – | activity ([2]; HEK293 23.26%): 7.97 % indels
TGAATAGGAAATATATTT (double strand) [OffA1 left half-site] | < 0.001 | 0.002 | –
TGAATTGAGAGAAGCATT (double strand) [OffA11 left half-site] | – | – | activity ([2]; not significant, HEK293 <0.001%): 0.002 % indels; activity ([3]; control 0.001%, not significant): 0.002 % indels
TTTATTTTACTGTCTTTA (double strand) [ATM right half-site on-target (sense strand)] | – | – | activity [4]: 31.5 % cleavage
TAGATTGAAATGCTGTTT (double strand) [OffA23 left half-site] | < 0.001 | < 0.001 | –
